{
  "source": "paper PMC8878330",
  "about": "(Molecules, 2022)",
  "key": {"[1]": {"biological_target": "T1, New Delhi metallo-β-lactamase-1 (NDM-1) (Klebsiella pneumoniae, UniProt C7C422)", "T1 construct": "gene blaNDM-1", "T1 sequence (C7C422 29-270 limits assumed)": "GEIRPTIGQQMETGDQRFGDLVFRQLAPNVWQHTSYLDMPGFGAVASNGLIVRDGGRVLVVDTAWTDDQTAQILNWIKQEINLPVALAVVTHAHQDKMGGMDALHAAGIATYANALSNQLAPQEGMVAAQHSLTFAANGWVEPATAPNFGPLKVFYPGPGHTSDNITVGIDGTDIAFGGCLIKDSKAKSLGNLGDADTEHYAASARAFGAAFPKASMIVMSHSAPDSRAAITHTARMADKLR", "test": "steady-state hydrolysis kinetics with purified NDM-1 (Km)", "format": "biochemical"}, "[2]": {"system": "CC1(C)S[C@@H]2[C@H](NC(=O)[C@H](N)c3ccccc3)C(=O)N2[C@H]1C(=O)O", "test": "steady-state hydrolysis kinetics with purified NDM-1 (Km)", "format": "biochemical, Klebsiella pneumoniae", "conditions": "Zn2+ (two Zn ions)"}, "[3]": {"system": "C[C@@H](O)[C@H]1C(=O)N2C(C(=O)O)=C(SCCN=CN)C[C@H]12", "test": "steady-state hydrolysis kinetics with purified NDM-1 (Km)", "format": "biochemical, Klebsiella pneumoniae", "conditions": "Zn2+ (two Zn ions)"}, "[4]": {"system": "CO/N=C(\\C(=O)N[C@@H]1C(=O)N2C(C(=O)O)=C(COC(C)=O)CS[C@H]12)c1csc(N)n1", "test": "steady-state hydrolysis kinetics with purified NDM-1 (Km)", "format": "biochemical, Klebsiella pneumoniae", "conditions": "Zn2+ (two Zn ions)"}, "[5]": {"system": "C[C@@H](O)[C@H]1C(=O)N2C(C(=O)O)=C(S[C@@H]3CN[C@H](C(=O)N(C)C)C3)[C@H](C)[C@H]12", "test": "steady-state hydrolysis kinetics with purified NDM-1 (Km)", "format": "biochemical, Klebsiella pneumoniae", "conditions": "Zn2+ (two Zn ions)"}, "[6]": {"biological_target": "T1, New Delhi metallo-β-lactamase-1 (NDM-1)", "test": "biochemical"}},
  "data": [
    {"compound": "O=C(Cc1cccs1)N[C@@H]1C(=O)N2C(C(=O)O)=C(/C=C/c3ccc([N+](=O)[O-])cc3[N+](=O)[O-])CS[C@H]12", "note": "[nitrocefin]", "values": [
      {"measurement": "Km", "setting": "[1]", "result": "23.2 ± 1.7", "unit": "µM"}
    ]},
    {"compound": "New Delhi metallo-β-lactamase-1 (NDM-1) (Klebsiella pneumoniae)", "values": [
      {"measurement": "Km", "setting": "[2]", "result": "96.5 ± 3.1", "unit": "µM"},
      {"measurement": "Vmax", "setting": "[2]", "result": 44.9, "unit": "µM/min"},
      {"measurement": "kcat", "setting": "[2]", "result": "375 ± 14.3", "unit": "s⁻¹"},
      {"measurement": "kcat/Km", "setting": "[2]", "result": "3.88e+06 ± 190000", "unit": "M⁻¹ s⁻¹"},
      {"measurement": "Km", "setting": "[3]", "result": "75.9 ± 2.9", "unit": "µM"},
      {"measurement": "Vmax", "setting": "[3]", "result": 91, "unit": "µM/min"},
      {"measurement": "kcat", "setting": "[3]", "result": "758 ± 18.6", "unit": "s⁻¹"},
      {"measurement": "kcat/Km", "setting": "[3]", "result": "9.99e+06 ± 450000", "unit": "M⁻¹ s⁻¹"},
      {"measurement": "Km", "setting": "[4]", "result": "54.8 ± 3.7", "unit": "µM"},
      {"measurement": "Vmax", "setting": "[4]", "result": 45.1, "unit": "µM/min"},
      {"measurement": "kcat", "setting": "[4]", "result": "375 ± 17.5", "unit": "s⁻¹"},
      {"measurement": "kcat/Km", "setting": "[4]", "result": "6.85e+06 ± 560000", "unit": "M⁻¹ s⁻¹"},
      {"measurement": "Km", "setting": "[5]", "result": "52.8 ± 3.4", "unit": "µM"},
      {"measurement": "Vmax", "setting": "[5]", "result": 38.6, "unit": "µM/min"},
      {"measurement": "kcat", "setting": "[5]", "result": "322 ± 11.7", "unit": "s⁻¹"},
      {"measurement": "kcat/Km", "setting": "[5]", "result": "6.1e+06 ± 450000", "unit": "M⁻¹ s⁻¹"}
    ]},
    {"compound": "O=P(O)(O)C(O)(Cc1cccnc1)P(=O)(O)O", "note": "[risedronate]", "values": [
      {"measurement": "IC50", "setting": "[6]", "result": 24.6, "unit": "µM"}
    ]}
  ]
}
